The series has as its target Pab1 monomer (poly(A)-binding protein) (Saccharomyces cerevisiae, UniProt P04147 1-577). The experiment in a line: fluorescence anisotropy; monomer calibration, titration regime; Kd cannot be determined; 1x disaggregation buffer (composition not in the material), 30 C, 15 uL samples, fluorescein ex/em 485/535 nm; 0.2 uM A19 RNA used for gain setting. The conditions noted are these: protein: recombinant; tags: 8xHis-TEV site tag, removed by TEV protease; label: 5' 6-FAM; single strand.

Sequence of Pab1 monomer (poly(A)-binding protein) (P04147 whole entry): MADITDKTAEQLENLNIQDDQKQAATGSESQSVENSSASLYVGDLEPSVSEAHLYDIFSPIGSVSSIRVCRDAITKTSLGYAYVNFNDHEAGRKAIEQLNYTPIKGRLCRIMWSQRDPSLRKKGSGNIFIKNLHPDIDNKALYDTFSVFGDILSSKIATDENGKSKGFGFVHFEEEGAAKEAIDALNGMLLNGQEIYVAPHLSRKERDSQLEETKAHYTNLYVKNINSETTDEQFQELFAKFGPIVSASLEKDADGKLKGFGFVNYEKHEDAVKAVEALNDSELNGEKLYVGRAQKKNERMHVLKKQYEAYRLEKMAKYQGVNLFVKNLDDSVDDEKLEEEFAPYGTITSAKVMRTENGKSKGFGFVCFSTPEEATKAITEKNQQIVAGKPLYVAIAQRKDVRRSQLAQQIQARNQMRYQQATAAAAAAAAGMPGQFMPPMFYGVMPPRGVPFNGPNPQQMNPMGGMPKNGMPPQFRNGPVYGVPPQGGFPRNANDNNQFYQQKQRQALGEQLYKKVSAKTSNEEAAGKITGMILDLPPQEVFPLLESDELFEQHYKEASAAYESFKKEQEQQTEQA

B1: Fluorescein-A19 RNA (ssRNA)
RNA: AAAAAAAAAAAAAAAAAAA
On to B1, for which the binding result is “binds”.

The values are drawn from article PMC9121323, “Using fluorescence anisotropy to monitor chaperone dispersal of RNA-binding protein condensates”.
